In patent US7208574 (UNIVERSITY OF BRITISH COLUMBIA, dated 2007):

Target: T1, β1 integrins (UniProt P05556 21-798)
T1 construct: Endogenous protein of the epithelial membrane extract; also called beta 1 integrins
Assay: gel overlay with HeLa membrane extract

T1 sequence (P05556 21-798): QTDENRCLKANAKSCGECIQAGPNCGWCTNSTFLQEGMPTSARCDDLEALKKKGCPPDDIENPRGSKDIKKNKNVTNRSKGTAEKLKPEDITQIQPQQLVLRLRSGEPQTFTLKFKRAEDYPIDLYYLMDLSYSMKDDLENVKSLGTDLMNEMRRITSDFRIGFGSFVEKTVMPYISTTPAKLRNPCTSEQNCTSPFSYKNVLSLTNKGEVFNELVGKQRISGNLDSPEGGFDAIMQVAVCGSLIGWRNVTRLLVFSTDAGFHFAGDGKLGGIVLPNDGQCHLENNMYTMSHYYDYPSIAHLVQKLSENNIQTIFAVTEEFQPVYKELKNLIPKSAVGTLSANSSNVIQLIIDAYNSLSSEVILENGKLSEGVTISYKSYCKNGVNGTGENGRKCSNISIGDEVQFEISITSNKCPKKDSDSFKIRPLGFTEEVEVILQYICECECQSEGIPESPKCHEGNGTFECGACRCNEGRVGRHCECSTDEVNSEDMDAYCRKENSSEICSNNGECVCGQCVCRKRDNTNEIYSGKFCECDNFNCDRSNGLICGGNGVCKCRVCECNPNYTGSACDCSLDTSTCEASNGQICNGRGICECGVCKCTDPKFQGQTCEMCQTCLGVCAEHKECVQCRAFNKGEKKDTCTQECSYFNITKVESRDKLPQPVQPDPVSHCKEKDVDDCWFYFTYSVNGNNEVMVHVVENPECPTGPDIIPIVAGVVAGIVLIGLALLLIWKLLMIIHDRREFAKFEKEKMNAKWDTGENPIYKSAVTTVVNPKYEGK

B1: His-T7Int fusion protein (other)
chain: ITEIKADKTTAVANGQDAITYTVKVMKGDKPVSNQEVTFTTTLGKLSNSTEKTDTNGYAKVTLTSTTPGKSLVSARVSDVAVDVKAPEVEFFTTLTIDDGNIEIVGTGVKGKLPTVWLQYGQVNLKASGGNGKYTWRSANPAIASVDASSGQVTLKEKGTTTISVISSDNQTATYTIATPNSLIVPNMSKRVTYNDAVNTCKNFGGKLPSSQNELENVFKAWGAANKYEYYKSSQTIISWVQQTAQDAKSGVASTYDLVKQNPLNNIKASESNAYATCVK
notes: domain: 280 C-terminal residues of intimin; Purified on an agarose-nickel column; also called His-T7Intimin; His-T7Int peptide
binding result: no binding
